Laboratory results reported in PMC3111433.

Target: Francisella tularensis subsp. holarctica LVS 2-C-methyl-D-erythritol 4-phosphate cytidylyltransferase (Francisella tularensis subsp. holarctica LVS)
Assay: SEC

## Francisella tularensis subsp. holarctica LVS 2-C-methyl-D-erythritol 4-phosphate cytidylyltransferase (enzyme)
  stoichiometry N: 2
